Results on 4 molecules are retold here after patent US20130331317A1 (NEW YORK UNIVERSITY, published 2013).

Usually Kd stands for a measure of binding affinity in units of concentration. Low readings indicate higher affinity, high ones lower affinity.

The target in assay [1] is binary complex of FGFR1c ligand-binding domain with murine αKlotho ectodomain (murine;human) (UniProt O35082). Description: SPR.
The target of assay [2] is T1, binary complex of FGFR1c ligand-binding domain with murine βKlotho ectodomain (murine; human, UniProt P11362 142-365).
T1 construct: range 142-365; also called βKlotho-FGFR1c complex; βKlotho-FGFR1c; not shown: C-terminal FLAG tag
T1 sequence 1: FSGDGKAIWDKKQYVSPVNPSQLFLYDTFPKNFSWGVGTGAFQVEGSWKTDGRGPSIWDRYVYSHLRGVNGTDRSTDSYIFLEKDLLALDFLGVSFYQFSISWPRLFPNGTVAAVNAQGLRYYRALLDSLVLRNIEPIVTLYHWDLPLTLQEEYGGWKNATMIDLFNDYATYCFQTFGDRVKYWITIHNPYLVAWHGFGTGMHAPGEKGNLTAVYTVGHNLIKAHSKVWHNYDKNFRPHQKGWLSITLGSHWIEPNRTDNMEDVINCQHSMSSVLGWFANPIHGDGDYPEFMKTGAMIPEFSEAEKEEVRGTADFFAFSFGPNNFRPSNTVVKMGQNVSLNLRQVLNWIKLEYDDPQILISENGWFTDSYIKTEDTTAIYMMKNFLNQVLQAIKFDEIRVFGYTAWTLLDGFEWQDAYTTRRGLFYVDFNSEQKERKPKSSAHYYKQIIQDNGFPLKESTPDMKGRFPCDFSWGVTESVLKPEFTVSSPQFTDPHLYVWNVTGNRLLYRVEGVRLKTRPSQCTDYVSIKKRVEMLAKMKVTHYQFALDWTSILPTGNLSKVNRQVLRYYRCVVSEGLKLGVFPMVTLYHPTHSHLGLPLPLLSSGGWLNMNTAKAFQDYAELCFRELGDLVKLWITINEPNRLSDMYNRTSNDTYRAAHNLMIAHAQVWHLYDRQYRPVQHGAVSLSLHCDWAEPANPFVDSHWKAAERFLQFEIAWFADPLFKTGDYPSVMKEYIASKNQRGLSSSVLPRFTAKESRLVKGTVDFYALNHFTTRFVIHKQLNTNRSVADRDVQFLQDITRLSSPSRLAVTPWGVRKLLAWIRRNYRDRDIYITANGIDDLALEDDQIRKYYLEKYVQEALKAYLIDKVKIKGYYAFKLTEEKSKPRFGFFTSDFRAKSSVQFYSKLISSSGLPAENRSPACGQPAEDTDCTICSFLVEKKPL
T1 sequence 2: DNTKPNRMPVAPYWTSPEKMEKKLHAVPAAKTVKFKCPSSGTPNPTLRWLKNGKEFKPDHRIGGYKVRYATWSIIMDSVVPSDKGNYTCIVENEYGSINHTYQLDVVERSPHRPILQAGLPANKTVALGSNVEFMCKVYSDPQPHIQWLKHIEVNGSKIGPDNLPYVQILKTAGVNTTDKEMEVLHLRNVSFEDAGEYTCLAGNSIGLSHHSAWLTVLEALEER
Description: SPR competition; FGF21 in solution mixed with βKlotho-FGFR1c complex, passed over immobilised FGF21. The text has this:
To this end, a SPR-based binding competition assay was employed. FGF23 was immobilized onto a SPR biosensor chip, and mixtures of a fixed concentration of binary αKlotho-FGFR1c complex with increasing concentrations of FGF2^ΔHBScore-FGF23^C-tail chimera were passed over the chip. […] To test whether the FGF2^ΔHBScore-FGF21^C-tail chimera can likewise form a ternary complex with FGFR1c and βKlotho, FGF21 was coupled to a SPR biosensor chip, and mixtures of the binary βKlotho-FGFR1c complex with FGF2^ΔHBScore-FGF21^C-tail were passed over the chip. […] To further confirm the binding specificity of the FGF2^ΔHBScore-FGF23^C-tail chimera for the αKlotho-FGFR1c complex, FGF2^ΔHBScore-FGF23^C-tail and βKlotho-FGFR1c complex were mixed at a molar ratio of 10:1, and the mixture was injected over a chip containing immobilized FGF21. […] For the FGF2^ΔHBScore-FGF21^C-tail chimera, we investigated whether it is able to activate FGFR1c in a βKlotho-dependent fashion in cells. HEK293 cells were transfected with βKlotho and then stimulated with FGF2^ΔHBScore-FGF21^C-tail or FGF21.

The target in assay [3] is T2, ligand-binding domain of human FGFR1c (D142 to R365) (human, UniProt P11362 142-365).
T2 construct: range 142-365
T2 sequence (looked up): T1 sequence 2
The experiment in a line: SPR; increasing concentrations of FGFR1c ligand-binding domain passed over immobilised FGF21. The text has this: (§1) FIGS. 10A-10D show overlays of SPR sensorgrams illustrating binding of FGFR1c to FGF2 (FIG. 10A), FGF19 (FIG. 10B), FGF21 (FIG. 10C), and FGF23 (FIG. 10D), and fitted saturation binding curves. Increasing concentrations of FGFR1c ligand-binding domain were passed over a biosensor chip containing immobilized FGF2, FGF19, FGF21, or FGF23. […] Increasing concentrations of αKlotho-FGFR1c complex were passed over a biosensor chip containing immobilized FGF23. […] FGF23^C-tail was immobilized on a biosensor chip and increasing concentrations of FGFR1c ligand-binding domain were passed over the chip. Dissociation constants (KDs) given in FIGS. 10A-10E were derived from the saturation binding curves.
(§2) Surface plasmon resonance (SPR) experiments were performed on a Biacore 2000 instrument (Biacore AB), and the interactions were studied at 25° C. in HBS-EP buffer (10 mM HEPES-NaOH, pH 7.4, 150 mM NaCl, 3 mM EDTA, 0.005% (v/v) polysorbate 20). To study endocrine FGF-heparin interactions, a heparin chip was prepared by immobilizing biotinylated heparin (Sigma-Aldrich) on flow channels of a research-grade streptavidin chip (Biacore AB). The coupling density was ˜5 fmol mm⁻² of flow channel. To measure binding of chimeric FGF2 proteins to heparin, biotinylated heparin was coupled to a streptavidin chip at an approximately 4-fold lower density as judged based on the binding responses obtained for FGF1. […]
Background: In SPR one partner is held on a chip, and binding of the other changes the refractive index at the surface.

Assay [4] has as its target T3, ligand-binding domain of human FGFR1c (D142 to R365) (human, UniProt P11362 142-365).
T3 chain: T1 sequence 2
The experiment in a line: SPR.

In assay [5] the target is T2, ligand-binding domain of human FGFR1c …. Description: SPR; increasing concentrations of FGFR1c ligand-binding domain passed over immobilised FGF23.
Source text: as §1, §2

For assay [6], the target named is T4, binary complex of FGFR1c ligand-binding domain with murine αKlotho ectodomain (murine; human, UniProt O35082 35-982; P11362 142-365).
T4 construct: range 35-982;range 142-365; αKlotho ectodomain was expressed in HEK293 cells; also called αKlotho-FGFR1c complex; αKlotho-FGFR1c; not shown: C-terminal FLAG tag
T4 sequence (looked up) 1: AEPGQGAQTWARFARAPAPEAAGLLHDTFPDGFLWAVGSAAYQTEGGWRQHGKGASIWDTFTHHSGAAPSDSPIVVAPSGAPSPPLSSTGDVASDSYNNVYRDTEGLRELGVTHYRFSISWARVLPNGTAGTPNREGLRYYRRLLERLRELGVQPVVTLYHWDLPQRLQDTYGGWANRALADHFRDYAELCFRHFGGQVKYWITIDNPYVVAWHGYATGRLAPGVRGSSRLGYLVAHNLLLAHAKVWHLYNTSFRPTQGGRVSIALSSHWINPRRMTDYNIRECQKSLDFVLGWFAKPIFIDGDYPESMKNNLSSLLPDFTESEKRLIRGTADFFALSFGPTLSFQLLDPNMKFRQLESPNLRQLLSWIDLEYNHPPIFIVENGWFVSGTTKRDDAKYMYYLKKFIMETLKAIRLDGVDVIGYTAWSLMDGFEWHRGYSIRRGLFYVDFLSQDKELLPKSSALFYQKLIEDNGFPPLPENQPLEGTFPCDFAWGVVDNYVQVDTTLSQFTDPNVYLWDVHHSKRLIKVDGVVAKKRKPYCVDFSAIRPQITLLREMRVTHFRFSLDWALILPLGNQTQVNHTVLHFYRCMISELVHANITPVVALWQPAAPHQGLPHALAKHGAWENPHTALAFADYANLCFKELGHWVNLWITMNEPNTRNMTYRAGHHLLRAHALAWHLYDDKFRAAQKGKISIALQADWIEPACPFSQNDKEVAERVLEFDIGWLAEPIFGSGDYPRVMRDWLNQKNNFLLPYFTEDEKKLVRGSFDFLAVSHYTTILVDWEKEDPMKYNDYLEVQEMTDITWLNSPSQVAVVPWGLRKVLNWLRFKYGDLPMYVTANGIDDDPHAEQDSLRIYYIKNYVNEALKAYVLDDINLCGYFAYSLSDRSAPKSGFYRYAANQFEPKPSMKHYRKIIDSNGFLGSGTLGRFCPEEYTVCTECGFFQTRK
T4 sequence (looked up) 2: T1 sequence 2
The experiment in a line: SPR; FGFR1c ligand-binding domain or αKlotho-FGFR1c complex passed over immobilised FGF23 (FIGS. 10D and 10E).
Source text: as §1, §2

The target in assay [7] is T2, ligand-binding domain of human FGFR1c …. The experiment in a line: SPR; FGF23^C-tail immobilised on the chip, increasing concentrations of FGFR1c ligand-binding domain passed over it.
Source text: as §1, §2

Some results are limits rather than exact numbers.

In turn, “human FGF23 (Y25 to I251), N-terminally hexahistidine-tagged mature form, with R176Q/R179Q (from UniProt Q9GZV9 25-251)” gave a Kd in assay [1] of 27.4 nM.

B1: human FGF21 (H29 to S209), N-terminally hexahistidine-tagged mature form (ligand)
chain: HPIPDSSPLLQFGGQVRQRYLYTDDAQQTEAHLEIREDGTVGGAADQSPESLLQLKALKPGVIQILGVKTSRFLCQRPDGALYGSLHFDPEACSFRELLLEDGYNVYQSEAHGLPLHLPGNKSPHRDPAPRGPARFLPLPGLPPALPEPPGILAPQPPDVGSSDPLSMVGPSQGRSPSYAS
notes: also called native FGF21; not shown: N-terminal hexahistidine tag
Take B1: the binding result in assay [2] and in assay [3] was “binds” each time. This molecule also had a Kd in assay [4] of 2520 nM.

B2: human FGF23 (Y25 to I251), N-terminally hexahistidine-tagged mature form, with R176Q/R179Q (ligand)
chain: YPNASPLLGSSWGGLIHLYTATARNSYHLQIHKNGHVDGAPHQTIYSALMIRSEDAGFVVITGVMSRRYLCMDFRGNIFGSHYFDPENCRFQHQTLENGYDVYHSPQYHFLVSLGRAKRAFLPGMNPPPYSQFLSRRNEIPLIHFNTPIPRQHTQSAEDDSERDPLNVLKPRARMTPAPASCSQELPSAEDNSPMASDPLGVVRGGRVNTHAGGTGPEGCRPFAKFI
notes: also called native FGF23; wild-type FGF23; not shown: N-terminal hexahistidine tag
Turning to B2, the binding result in assay [5] was “binds”. The “fold enhancement of affinity (αKlotho-FGFR1c complex against FGFR1c alone)” value in assay [6] was over 20 fold. Besides, the Kd in assay [4] is 648 nM.

B3: N-terminally hexahistidine-tagged C-terminal tail peptide of FGF23 (S180 to I251) (peptide)
peptide: SAEDDSERDPLNVLKPRARMTPAPASCSQELPSAEDNSPMASDPLGVVRGGRVNTHAGGTGPEGCRPFAKFI
notes: also called FGF23^C-tail; not shown: N-terminal hexahistidine tag
As to B3, the binding result in assay [7] is “no binding”.
